Here are results for one molecule from article PMC4666417, “Specific Interaction between eEF1A and HIV RT Is Critical for HIV-1 Reverse Transcription and a Potential Anti-HIV Target” (PLoS Pathogens, 2015).

Experiment [1] addresses HIV-1 Gag, 6xHis-tagged, purified (HIV-1). Nature of the experiment: BLI; biotinylated eEF1 subunit (eEF1A1, eEF1B, eEF1D or eEF1G) immobilised on streptavidin biosensor; RT subunits, RT heterodimer, Gag or RTp66 mutants as analytes at 90, 30 and 10 nM (mutants at 90 nM); kinetic buffer 1 mM phosphate, 15 mM NaCl, 0.002% Tween-20, 0.1 mg/ml gelatine, 1000 rpm, OctetRed. As to conditions: both partners purified. Background: Biolayer interferometry detects binding as a change in optical thickness at a sensor tip.

Experiment [2] concerns the target T1, HIV-1 RT p66, 6xHis-tagged, purified (gift) (HIV-1, UniProt P04585 588-1147).
T1 construct: source: E. coli, purified; gift
Described as above. The following applies: both partners purified.

B1: eEF1A1 (eukaryotic elongation factor 1 subunit A1), MYC/DDK-tagged (natural protein, human, UniProt P68104 1-462, looked up)
chain: MGKEKTHINIVVIGHVDSGKSTTTGHLIYKCGGIDKRTIEKFEKEAAEMGKGSFKYAWVLDKLKAERERGITIDISLWKFETSKYYVTIIDAPGHRDFIKNMITGTSQADCAVLIVAAGVGEFEAGISKNGQTREHALLAYTLGVKQLIVGVNKMDSTEPPYSQKRYEEIVKEVSTYIKKIGYNPDTVAFVPISGWNGDNMLEPSANMPWFKGWKVTRKDGNASGTTLLEALDCILPPTRPTDKPLRLPLQDVYKIGGIGTVPVGRVETGVLKPGMVVTFAPVNVTTEVKSVEMHHEALSEALPGDNVGFNVKNVSVKDVRRGNVAGDSKNDPPMEAAGFTAQVIILNHPGQISAGYAPVLDCHTAHIACKFAELKEKIDRRSGKKLEDGPKFLKSGDAAIVDMVPGKPMCVESFSDYPPLGRFAVRDMRQTVAVGVIKAVDKKAAGAGKVTKSAQKAQKAK
modifications: biotinylated with EZ-Link Sulfo-NHS-Biotin where immobilised on the biosensor
notes: human eEF1A1, full-length; Used as analyte (a1, a2, a5) and, biotinylated, as immobilised ligand (a3); also called MYC/DDK-eEF1A1; purified eEF1A; source: HEK293 cells, bought: OriGene; not shown: MYC, C-terminal, kept; DDK, C-terminal, kept
In experiment [1], B1 yielded a Kd of 21.5 ± 11.1 nM, an off-rate (koff) of 0.00188 s⁻¹ and a kon of 87500 M⁻¹ s⁻¹. In experiment [2], the affinity, expressed as Kd, was 3.19 ± 1.08 nM; the koff is 0.000222 s⁻¹; the kon was 69500 M⁻¹ s⁻¹.

One may read the Kd as the free concentration of one partner at which half of the binding sites on the other are occupied at equilibrium, for simple one-to-one binding. Low values mean tighter binding, high ones weaker binding. The term koff denotes a measure of how fast the partners let go of each other. Higher therefore signals fast dissociation. What is called kon is the second-order rate constant of association. Higher therefore signals faster complex formation.
